Where no end group is shown, it is not given here.
Columns and labels:
HIV-1 particles = test: Release of HIV-1 virus-like particles from transfected COS-1 cells, Western blot with anti-CA; format: cell-based
[1] = target: GAL4 activation domain-Tsg101 fusion protein (wild-type human Tsg101) (yeast; human) (UniProt Q99816); test: cell-based or functional assay
[2] = target: GAL4 DNA-binding domain-p1-p6 fusion protein (yeast; HIV-1) (UniProt P04386); test: cell-based or functional assay
[3] = Solubility of the peptide; format: physicochemical; settings: precluded testing at higher concentrations
HIV-1 Gag = format: cell-based

## CC(C)CC[C@@H](O)[C@](C)(O)[C@H]1CC[C@@]2(O)C3=CC(=O)[C@@H]4C[C@@H](O)[C@@H](O)C[C@]4(C)[C@H]3CC[C@]12C [pa, pronasterone, reference compound]
HIV-1 particles
  effect on virus particle release: no inhibitory effect

## GAL4 DNA-binding domain-p1-p6 with the first PTAPP motif deleted (from UniProt P04386 1-147; P03347 435-512)
[1]
  β-galactosidase activity (yeast 2-hybrid) (% of wild-type): 50

## GAL4 activation domain-Tsg101 with Ala for Thr67-Tyr68-Asn69 (from UniProt P04386 768-881)
[2]
  2-hybrid assay, percent of wild-type interaction (% of wild-type): 5

## GAL4 DNA-binding domain-p1-p6 with both PTAPP motifs deleted (from UniProt P04386 1-147; P03347 435-512)
[1]
  β-galactosidase activity (yeast 2-hybrid): < 0.3%

## GAL4 DNA-binding domain-p1-p6 with the second PTAPP motif deleted (from UniProt P04386 1-147; P03347 435-512)
[1]
  β-galactosidase activity (yeast 2-hybrid) (% of wild-type): 25

## ALQSRPEPTAPPEES
[3]
  solubility of the peptide: limited solubility

## GAL4 DNA-binding domain-p1-p6 with the first PTAPP motif deleted and Ala for Pro7 in the second motif (from UniProt P04386 1-147; P03347 435-512)
[1]
  enzyme activity (β-galactosidase, yeast 2-hybrid) (% of wild-type): 25

## GAL4 activation domain-Tsg101 Y110W (from UniProt P04386 768-881)
[2]
  2-hybrid assay, percent of wild-type interaction (% of wild-type): 31

## GAL4 DNA-binding domain-p1-p6 with the (LXX)4 repeat motif deleted (from UniProt P04386 1-147; P03347 435-512)
[1]
  β-galactosidase activity (yeast 2-hybrid) (% of wild-type): 55

## GAL4 activation domain-Tsg101 Y113V (from UniProt P04386 768-881)
[2]
  2-hybrid assay, percent of wild-type interaction (% of wild-type): 33

B1: SD5-59 (protein)
chain: MAVSESQLKKMVSKYKYRDLTVRETVNVITLYKDLKPVLDSYVFNDGSSRELMNLTGTIPVPYRGNTYNIPICLWLLDTYPYNPPICFVKPTSSMTIKTGKHVDANGKIYLPYLHEWKHPQSDLLGLIQVMIVVFGDEPPVFSRPISASYPPYQATGPPNTSYMPGMPGGISPYPSGYPPNPSGYPGCPYPPGGPYPATTSSQYPSQPPVTTVGPSRDGTISEDTIRASLISAVSDKLRWRMKEEMDRAQAELNALKRTEEDLKKGHQKLEEMVTRLDQEVAEVDKNIELLKKKDEELSSALEKMENQSENNDIDEVIIPTAPLYKQILNLYAEENAIEDTIFYLGEGGVIDLDVFLKHVRLLSRKQFQLRALMQKARKTAGLSDLY
modifications: left off: small tags and cut ends
HIV-1 particles; COS cells, wild-type gag, 1 and 5 μM pa
  Gag processing in released particles: accumulation of particle-associated uncleaved Gag precursor
HIV-1 particles; COS cells, wild-type gag, increasing expression with 1 and 5 μM pa
  release of virus particles: permitted release of virus particles
HIV-1 Gag
  viral protein in P1 fraction: no protein was found
  viral protein in S1 fraction: detectable levels of viral protein

B2: pIND-h-Tsg101-FLAG: wild-type human Tsg101, FLAG-tagged, inducibly over-expressed from plasmid (protein)
chain: MAVSESQLKKMVSKYKYRDLTVRETVNVITLYKDLKPVLDSYVFNDGSSRELMNLTGTIPVPYRGNTYNIPICLWLLDTYPYNPPICFVKPTSSMTIKTGKHVDANGKIYLPYLHEWKHPQSDLLGLIQVMIVVFGDEPPVFSRPISASYPPYQATGPPNTSYMPGMPGGISPYPSGYPPNPSGYPGCPYPPGGPYPATTSSQYPSQPPVTTVGPSRDGTISEDTIRASLISAVSDKLRWRMKEEMDRAQAELNALKRTEEDLKKGHQKLEEMVTRLDQEVAEVDKNIELLKKKDEELSSALEKMENQSENNDIDEVIIPTAPLYKQILNLYAEENAIEDTIFYLGEALRRGVIDLDVFLKHVRLLSRKQFQLRALMQKARKTAGLSDLY
modifications: left off: small tags and cut ends
notes: wild-type human Tsg101, FLAG-tagged, inducibly over-expressed from plasmid
HIV-1 particles; COS-1 cells, gagΔp6, Tsg101 overexpression, 0, 1, 5 μM pa
  release of immature particles containing GagΔp6: not significantly affected
HIV-1 particles; COS-1 cells, wild-type gag, 1 μM pa inducer
  amount of mature CA in released virus, of the control (0 μM pa) level: ~60%
HIV-1 particles; COS-1 cells, wild-type gag, 5 μM pa inducer
  amount of mature CA in released virus, of the control (0 μM pa) level: ~30%
HIV-1 Gag
  viral protein in P1 fraction: no detectable viral protein
  viral protein in S1 fraction: no detectable viral protein

Reference: patent US20050009745A1, “TSG101 as inhibitor of HIV production” (priority 2001, published 2005)
